Target: the molecule itself
Assay: SEC

B1: Lipo-YcjN (recombinantly overexpressed lipidated YcjN, heterogeneously diacylated at cysteine 21) (natural protein, E. coli K-12, UniProt P76042 21-430, looked up)
chain: CKEENKTNVSIEFMHSSVEQERQAVISKLIARFEKENPGITVKQVPVEEDAYNTKVITLSRSGSLPEVIETSHDYAKVMDKEQLIDRKAVATVISNVGEGAFYDGVLRIVRTEDGSAWTGVPVSAWIGGIWYRKDVLAKAGLEEPKNWQQLLDVAQKLNDPANKKYGIALPTAESVLTEQSFSQFALSNQANVFNAEGKITLDTPEMMQALTYYRDLTANTMPGSNDIMEVKDAFMNGTAPMAIYSTYILPAVIKEGDPKNVGFVVPTEKNSAVYGMLTSLTITAGQKTEETEAAEKFVTFMEQADNIADWVMMSPGAALPVNKAVVTTATWKDNDVIKALGELPNQLIGELPNIQVFGAVGDKNFTRMGDVTGSGVVSSMVHNVTVGKADLSTTLQASQKKLDELIEQH
modifications: cysteine 21 diacylated, acyl chain compositions [16:0, 16:0] and [16:0, 18:1]
B1: binds.
